Test results from publication PMC8261802.

Experiments:
[1] = molecular target: PEDV/S(1–1320) + CMP + Tags (porcine epidemic diarrhea virus (PEDV), strain 83P-5 | chicken); assay: SEC; Superose 6 increase 10/300 GL in 1 x PBS; markers thyroglobulin 669 kDa, ferritin 440 kDa, aldolase 158 kDa
[2] = molecular target: PEDV/S(1–1320) + CMP + Tags (porcine epidemic diarrhea virus (PEDV), strain 83P-5 | chicken); assay: native gel or EMSA; Blue-native PAGE, 3 to 12% Bis-Tris NativePAGE gel, 115 min at 150 V, CBB stain; purified S protein

Work on PEDV/S(1–1320) + CMP + Tags yielded a stoichiometry N [1] of 3 and a stoichiometry N [2] of 3.
